The labels stand for the following.
T1: SC35 (GST-SC35) (Populus tomentosa, UniProt A0AAD6QWB7 1-302)
T1 sequence: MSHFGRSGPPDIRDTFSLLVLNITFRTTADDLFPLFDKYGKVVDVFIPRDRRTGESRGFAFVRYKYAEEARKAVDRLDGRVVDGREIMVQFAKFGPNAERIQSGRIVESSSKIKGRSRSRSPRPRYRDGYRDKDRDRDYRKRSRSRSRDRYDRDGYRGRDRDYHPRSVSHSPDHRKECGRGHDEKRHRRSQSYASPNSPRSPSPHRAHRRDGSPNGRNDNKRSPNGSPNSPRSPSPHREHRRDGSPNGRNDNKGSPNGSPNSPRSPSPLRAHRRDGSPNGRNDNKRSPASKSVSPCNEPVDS

The values below come from paper PMC12328635.

The data set concerns the target T1, SC35 (GST-SC35). Kind of data set: EMSA. In general terms: Mobility shift assays separate free from complexed probe on a gel.
Consider CAUUAUGUUGAGGAAUUAGAAGAUAAGGUG (ssRNA) [Probe1], for which the binding result is recorded as “binds”. As to CAUUAUGUUGACCUUAAUCAAGAUAAGGUG (ssRNA) [Mutation-Probe1], the binding result is listed as “no binding”. The same measure for UUAGAGAGAGUGGAAUUAGUGGGUUUGGUU (ssRNA) [Probe2]: “binds”.

Take UUAGAGAGAGUCCUUAAUCUGGGUUUGGUU (ssRNA) [Mutation-Probe2]: the binding result is “no binding”.
